Laboratory results as given in patent publication US20090053213A1.

Tests used:
[1] = target: human GM-CSF (human) (UniProt P04141); assay: FACS receptor inhibition assay: inhibition of binding of 0.5 µg/ml biotinylated GM-CSF to GM-CSF receptor alpha on CHO-GMRa#11 cells
[2] = target: macaca mulatta (rhesus) GM-CSF (Macaca mulatta (rhesus)); assay: cell-based or functional assay
[3] = target: human GM-CSF (human) (UniProt P04141); assay: cell-based or functional assay
[4] = target: human GM-CSF receptor alpha chain (human) (UniProt P15509); assay: FACS on CHO-GMRa#11 cells, MAB1006 at 1 µg/ml, R-PE anti-mouse secondary, FL2 channel
Sequence of human GM-CSF receptor alpha chain (human) (P15509 23-400): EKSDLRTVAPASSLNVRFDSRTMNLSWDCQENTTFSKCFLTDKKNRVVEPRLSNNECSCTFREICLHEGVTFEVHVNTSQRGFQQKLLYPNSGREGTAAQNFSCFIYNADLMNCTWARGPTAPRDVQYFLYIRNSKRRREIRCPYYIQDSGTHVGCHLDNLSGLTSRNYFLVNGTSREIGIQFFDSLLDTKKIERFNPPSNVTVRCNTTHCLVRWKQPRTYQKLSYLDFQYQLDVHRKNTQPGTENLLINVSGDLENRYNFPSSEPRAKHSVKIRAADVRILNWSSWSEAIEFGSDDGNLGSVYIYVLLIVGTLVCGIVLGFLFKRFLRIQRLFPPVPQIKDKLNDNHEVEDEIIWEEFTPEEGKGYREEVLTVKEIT

Sequence of human GM-CSF (human) (P04141 18-144): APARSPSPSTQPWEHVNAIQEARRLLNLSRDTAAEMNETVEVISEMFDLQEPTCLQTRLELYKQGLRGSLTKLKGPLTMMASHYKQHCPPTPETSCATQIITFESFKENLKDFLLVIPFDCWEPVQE

## MAB215 (antibody)
[1]
  % inhibition at 5 µg/ml antibody: 50%
[2]
  IC50 (pM) in TF-1 proliferation assay, macaca GM-CSF (HEK293): 190 pM
[3]
  IC50 (pM) in TF-1 proliferation assay, human GM-CSF 0.25 ng/ml: 4320 pM
  IC50 (pM) in TF-1 proliferation assay, human GM-CSF (E. coli): 625 pM
  IC50 (pM) in TF-1 proliferation assay, human GM-CSF (HEK293): 54 pM
  IC50 x-fold improved compared to BVD2-21C11, TF-1 proliferation assay: 1.5 fold

## murine IgG MAB1006 (antibody)
[4]
  median fluorescence value (MFL value): 157
